Experiment [1] deals with Swiss 3T3 cells. The experiment is described as follows: MEKKCOOH-induced cell death after nuclear microinjection of expression plasmids. Format: cell-based. The protocol: Swiss 3T3 and REF52 cells were plated on acid-washed glass cover slips in Dulbecco's Modified Eagle's Medium (DMEM) and 10% bovine calf serum (BCS) or newborn calf serum (NCS). Cells were placed in DMEM/0.1% calf serum for overnight incubation prior to microinjection and used for injection at 50-70% confluence. Injections were performed with an Eppendorf automated microinjection system with needles pulled from glass capillaries on a vertical pipette puller (Kopf, Tujunga, Calif.). Cells were injected with pCMVβ-gal in the presence or absence of pCMV5MEKKCOOH or pCMV5BxBRaf at 20-100 ng/μl for each expression plasmid in 100 mM KC1, 5 mM NaPO4, pH 7.3. Following injection cells were placed in 1% NCS for 12-18 hr (Swiss 3T3) or 42 hr (REF52) prior to fixation with paraformaldehyde and staining. Similar results were obtained when cells were placed in 10% NCS after microinjection. Propidium iodide ([…]) was used to stain DNA. X-Gal reactions were performed for six hr.
Swiss 3T3 cells were microinjected with 100 ng/μl pCMVβ-gal and 20 ng/μl pCMV5MEKKCOOH. To label free DNA ends fixed and rehydrated cells were incubated with terminal deoxytransferase (TDT) and 10 nM biotin-dUTP following the manufacturer's instructions (Boehringer-Mannheim). Cells were stained with FITC-streptavidin to label DNA fragments. β-gal was detected using rabbit anti-p-gal antibody (Cappel Labs) and a rhodamine-labeled goat anti-rabbit antibody (Cappel Labs).
Seventeen hours after injection cells were fixed and stained for, β-galactosidase activity with X-Gal. Injected cells attached to the coverslip were scored as positive for cell death when they were highly condensed, small round cells.

Experiment [2] has as its system Gal4/Jun. The experiment is described as follows: Gal4-TK-luciferase transactivation analysis, Gal4/Jun. Format: cell-based. The settings on record: IPTG-induced stable expression in Swiss 3T3 cells. The source says:
(§1) Swiss 3T3 cells were transfected using calcium phosphate or lipofectamine with the reporter plasmid Gal4-TK-luciferase, which contains four Gal4 binding sites (Sadowski, I., et al. (1988). Nature 335, 563-564). adjacent to a minimal thymidine kinase (TK) promoter that controls expression of luciferase, in the presence or absence of activator plasmids encoding Gal4(1-147)/Myc(7-101) (Gupta et al. (1993) Proc. Natl. Acad. Sci. USA 90:3216-3220), Gal4(1-47)/Elk-1(83-428) (Marais, et al. (1993) Cell 73:381-393) or Gal4(1-147)/c-Jun(1-233) Hibi et al. (1993) Genes & Development 7:2135-2148). Transfections included pCMV5 without a cDNA insert (basal control), pCMV5MEKKCOOH and in some experiments pCMV5BxBRaf. Cells were incubated for 24-48 hr after transfection, lysed and assayed for luciferase activity. Values were normalized to equivalent μg protein for all experiments.

Experiment [3] has as its system Gal4/Myc. The experiment is described as follows: Gal4-TK-luciferase transactivation analysis, Gal4/Myc. The settings on record: IPTG-induced stable expression in Swiss 3T3 cells. Format: cell-based.
Excerpt: as §1

The subject of experiment [4] is ERK. The experiment in a line: ERK activity in Swiss 3T3 clones with inducible MEKKCOOH
Format: cell-based. The settings on record: 17 hours IPTG induction.

Experiment [5] relates to GST-Ras^V12. The experiment in a line: Binding of COS cell-expressed MEKK1 proteins to GST-Ras^V12 agarose. Conditions: COS cell lysates, immunoblot. The text has this:
COS cells were transiently transfected by the DEAE-dextran protocol as generally described in Example 3. Cos cells were transfected with: (1) p-MEKK1 containing a nucleic acid molecule encoding MEKK1 as described in Lange-Carter et al. (Science 260:315-319, […]); (2) p-MEKKNH2 containing a nucleic acid molecule that encodes a 858 base pair Pvull(682)-Ncol(1541) restriction digest fragment of the amino terminus of MEKK1 ligated into pCMV5; (3) p-MEKKCOOH containing a nucleic acid molecule that encodes a 1435 base pair Ncol(1541)-Sspl(2976) restriction digest fragment that includes the entire kinase domain of MEKK1 ligated into pCMV5; (4) pCMV5 without insert; or (5) p-C4Raf containing a nucleic acid molecule that encodes the amino terminus of Raf-1 ligated into pCMV5. COS cells expressing the various MEKK1 proteins were […] COS cells expressing the various MEKK1 proteins were lysed in EB (1% Triton X-100, 10 mM Tris HCl [pH 7.4], 5 mM EDTA, 50 mM NaCl, 50 mM NaF, 0.1% bovine serum albumin, 0.2 U/ml aprotinin, 1 mM phenylmethylsulfonyl fluoride and 2 mM Na3 VO4). The lysates were separated into two equal parts for separate binding reactions. Half of the lysate was incubated with GST agarose (1.5 μg) while half of the lysate was incubated with GST-Ras^V12 agarose (1.5 μg) (purchased from UBI) for 1 hr at 4° C. The GST-Ras^V12 was preincubated at 30° C. for 30 min with 1 mM nucleotide (GDP or GTPγS). The nucleotide binding reaction was stopped by adding MgCl2 to a final concentration of 20 mM. After the 1 hr binding reaction the agarose beads were pelleted at 2000 rpm for 2 min and washed 3 times with PBS+1.0% Triton X-100. The washed agarose beads were boiled in Laemmli SDS sample buffer and the proteins resolved by SDS polyacrylamide gel electrophoresis. Proteins were transferred onto nitrocellulose for immunoblotting with antibodies specific for an NH2 terminal fusion protein (described in Example 1) or a COOH terminal peptide (described in Example 1).

These results are taken from patent US20080201790A1, “Method and product for regulating cell responsiveness to external signals” (priority 1993, published 2008).

B1: MEKKCOOH: a truncated activated form of MEKK1 including the entire kinase domain (protein)
chain: MAMSASQDALPIVPQLQVENGEDIIIIQQDTPETLPGHTKAKQPYREDAEWLKGQQIGLGAFSSCYQAQDVGTGTLMAVKQVTYVRNTSSEQEEVVEALREEIRMMGHLNHPNIIRMLGATCEKSNYNLFIEWMAGGSVAHLLSKYGAFKESVVINYTEQLLRGLSYLHENQIIHRDVKGANLLIDSTGQRLRIADFGAAARLASKGTGAGEFQGQLLGTIAFMAPEVLRGQQYGRSCDVWSVGCAIIEMACAKPPWNAEKHSNHLALIFKIASATTAPSIPSHLSPGLRDVAVRCLELQPQDRPPSRELLKHPVFRTTW
For the molecule B1, the “Condensed Cells (percent of cells injected)” value in experiment [1] (100 ng/μl plasmids, seventeen hours after injection, X-Gal) is given as “Approximately 84%”. For the same molecule, the “cells with cytoplasmic and nuclear morphology characteristic of apoptosis” value in experiment [1] (18 hrs postinjection) is on record as “Greater than 80%”. Moreover, in experiment [1] (microinjected Swiss 3T3 cells), the “DNA fragmentation (TDT, biotin-dUTP, streptavidin-FITC)” value is “significant DNA fragmentation” and the “induction of cell death on expression (in words)” value was “resulted in significant cell death”. The Gal4/Jun activity entry in experiment [2] is listed as “little effect on Gal4/Jun activity”. The “transactivation function of c-Myc” value in experiment [3] is “markedly activated”. In experiment [4], the ERK activity entry is “did not activate either ERK or p38/Hog1 activity”. In addition, the “binding to GST-Ras^V12 (in words)” value in experiment [5] is listed as “bound to GST-Ras^V12 in a GTP dependent manner”.
